Experimental data reported in patent US20170183415A1 (Novartis, published 2017).

How the values were obtained:
[1] = biological target: T1, immobilized CD123 (UniProt P26951 19-305, limits assumed); assay: ELISA, soluble scFv on immobilized CD123
T1 construct: also called IL-3Rα; IL3Rα
T1 sequence (looked up): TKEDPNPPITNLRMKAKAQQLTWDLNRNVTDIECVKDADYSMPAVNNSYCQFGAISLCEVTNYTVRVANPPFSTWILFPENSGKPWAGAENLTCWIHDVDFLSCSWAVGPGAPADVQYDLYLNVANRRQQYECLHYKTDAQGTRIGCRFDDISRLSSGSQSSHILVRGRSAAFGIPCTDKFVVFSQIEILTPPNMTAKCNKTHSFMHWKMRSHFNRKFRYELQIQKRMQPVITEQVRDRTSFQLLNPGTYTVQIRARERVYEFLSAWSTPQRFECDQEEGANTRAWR

[2] = biological target: T2, human CD123-Fc (human, UniProt P26951 19-305, limits assumed); assay: flow cytometry of transduced T cells (day 10) stained with human CD123-Fc, then anti-human Fc PE; unit not given
T2 construct: Staining reagent; not shown: Fc part
T2 sequence (looked up): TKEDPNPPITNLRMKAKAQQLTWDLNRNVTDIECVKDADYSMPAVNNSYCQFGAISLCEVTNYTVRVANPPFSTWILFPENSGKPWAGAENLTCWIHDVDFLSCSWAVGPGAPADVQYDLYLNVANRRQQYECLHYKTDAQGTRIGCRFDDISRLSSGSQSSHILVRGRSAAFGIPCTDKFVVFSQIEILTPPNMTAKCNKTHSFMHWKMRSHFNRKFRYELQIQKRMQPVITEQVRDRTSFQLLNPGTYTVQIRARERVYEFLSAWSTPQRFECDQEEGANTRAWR
Description: To detect the transduction efficiency and level of expression of each construct, transduced T cells on day 10 of expansion were stained with (i) Alexa fluor 647 goat anti-mouse F(ab) reagent, (ii) FITC goat anti-human F(ab), or (iii) human CD123-Fc primary followed by anti-human Fc PE.

B1: parent mouse scFv (anti-CD123, clone 32716) (scFv)
scFv: DIVLTQSPASLAVSLGQRATISCRASESVDNYGNTFMHWYQQKPGQPPKLLIYRASNLESGIPARFSGSGSRTDFTLTINPVEADDVATYYCQQSNEDPPTFGAGTKLELKGGGGSGGGGSSGGGSQIQLVQSGPELKKPGETVKISCKASGYIFTNYGMNWVKQAPGKSFKWMGWINTYTGESTYSADFKGRFAFSLETSASTAYLHINDLKNEDTATYFCARSGGYDPMDYWGQGTSVTVSS
notes: also called mouse Ctrl scFv
EC50 [1]: 1.1 to 2.6 nM

B2: CD123 CAR 1172 (mouse anti-human CD123 CAR, scFv 32716 light-to-heavy, CD8 hinge, 4-1BB, CD3zeta) (other)
chain: GSDIVLTQSPASLAVSLGQRATISCRASESVDNYGNTFMHWYQQKPGQPPKLLIYRASNLESGIPARFSGSGSRTDFTLTINPVEADDVATYYCQQSNEDPPTFGAGTKLELKGGGGSGGGGSSGGGSQIQLVQSGPELKKPGETVKISCKASGYIFTNYGMNWVKQAPGKSFKWMGWINTYTGESTYSADFKGRFAFSLETSASTAYLHINDLKNEDTATYFCARSGGYDPMDYWGQGTSVTVSSASSGTTTPAPRPPTPAPTIASQPLSLRPEACRPAAGGAVHTRGLDFACDIYIWAPLAGTCGVLLLSLVITLYCKRGRKKLLYIFKQPFMRPVQTTQEEDGCSCRFPEEEEGGCELRVKFSRSADAPAYKQGQNQLYNELNLGRREEYDVLDKRRGRDPEMGGKPRRKNPQEGLYNELQKDKMAEAYSEIGMKGERRRGKGHDGLYQGLSTATKDTYDALHMQALPPR
notes: Chimeric antigen receptor expressed on human T cells; also called C1172; clone 72
Expression by CD123-Fc [2]: 32.3

B3: CAR 8 - Full (humanized CD123 CAR) (other)
chain: QIQLVQSGAEVKKPGASVKVSCKASGYIFTNYGMNWVRQAPGQRLEWMGWINTYTGESTYSADFKGRVTITLDTSASTAYMELSSLRSEDTAVYYCARSGGYDPMDYWGQGTTVTVSSGGGGSGGGGSGGGGSGGGGSEIVLTQSPATLSLSPGERATLSCRASESVDNYGNTFMHWYQQKPGQAPRLLIYRASNLESGIPARFSGSGSRTDFTLTISSLEPEDVAVYYCQQSNEDPPTFGQGTKLEIKTTTPAPRPPTPAPTIASQPLSLRPEACRPAAGGAVHTRGLDFACDIYIWAPLAGTCGVLLLSLVITLYCKRGRKKLLYIFKQPFMRPVQTTQEEDGCSCRFPEEEEGGCELRVKFSRSADAPAYKQGQNQLYNELNLGRREEYDVLDKRRGRDPEMGGKPRRKNPQEGLYNELQKDKMAEAYSEIGMKGERRRGKGHDGLYQGLSTATKDTYDALHMQALPPR
notes: Chimeric antigen receptor on transduced human T cells; also called UL69-05CC
Expression by CD123-Fc [2]: 73.2

B4: CAR 7 Full (humanized CD123 CAR) (other)
chain: QIQLVQSGAEVKKPGASVKVSCKASGYIFTNYGMNWVRQAPGQRLEWMGWINTYTGESTYSADFKGRVTITLDTSASTAYMELSSLRSEDTAVYYCARSGGYDPMDYWGQGTTVTVSSGGGGSGGGGSGGGGSGGGGSDIVLTQSPDSLAVSLGERATINCRASESVDNYGNTFMHWYQQKPGQPPKLLIYRASNLESGVPDRFSGSGSRTDFTLTISSLQAEDVAVYYCQQSNEDPPTFGQGTKLEIKTTTPAPRPPTPAPTIASQPLSLRPEACRPAAGGAVHTRGLDFACDIYIWAPLAGTCGVLLLSLVITLYCKRGRKKLLYIFKQPFMRPVQTTQEEDGCSCRFPEEEEGGCELRVKFSRSADAPAYKQGQNQLYNELNLGRREEYDVLDKRRGRDPEMGGKPRRKNPQEGLYNELQKDKMAEAYSEIGMKGERRRGKGHDGLYQGLSTATKDTYDALHMQALPPR
notes: Chimeric antigen receptor on transduced human T cells; also called WW88-24LB
Expression by CD123-Fc [2]: 51

B5: CAR 5 - Full (humanized CD123 CAR) (other)
chain: QIQLVQSGSELKKPGASVKVSCKASGYIFTNYGMNWVRQAPGQGLEWMGWINTYTGESTYSADFKGRFVFSLDTSVSTAYLQINALKAEDTAVYYCARSGGYDPMDYWGQGTTVTVSSGGGGSGGGGSGGGGSGGGGSDIVLTQSPDSLAVSLGERATINCRASESVDNYGNTFMHWYQQKPGQPPKLLIYRASNLESGVPDRFSGSGSRTDFTLTISSLQAEDVAVYYCQQSNEDPPTFGQGTKLEIKTTTPAPRPPTPAPTIASQPLSLRPEACRPAAGGAVHTRGLDFACDIYIWAPLAGTCGVLLLSLVITLYCKRGRKKLLYIFKQPFMRPVQTTQEEDGCSCRFPEEEEGGCELRVKFSRSADAPAYKQGQNQLYNELNLGRREEYDVLDKRRGRDPEMGGKPRRKNPQEGLYNELQKDKMAEAYSEIGMKGERRRGKGHDGLYQGLSTATKDTYDALHMQALPPR
notes: Chimeric antigen receptor on transduced human T cells; also called GW86-29RB
Expression by CD123-Fc [2]: 46.1

B6: 109375 CAR6 - Full (humanized CD123 CAR) (other)
chain: QIQLVQSGSELKKPGASVKVSCKASGYIFTNYGMNWVRQAPGQGLEWMGWINTYTGESTYSADFKGRFVFSLDTSVSTAYLQINALKAEDTAVYYCARSGGYDPMDYWGQGTTVTVSSGGGGSGGGGSGGGGSGGGGSEIVLTQSPATLSLSPGERATLSCRASESVDNYGNTFMHWYQQKPGQAPRLLIYRASNLESGIPARFSGSGSRTDFTLTISSLEPEDVAVYYCQQSNEDPPTFGQGTKLEIKTTTPAPRPPTPAPTIASQPLSLRPEACRPAAGGAVHTRGLDFACDIYIWAPLAGTCGVLLLSLVITLYCKRGRKKLLYIFKQPFMRPVQTTQEEDGCSCRFPEEEEGGCELRVKFSRSADAPAYKQGQNQLYNELNLGRREEYDVLDKRRGRDPEMGGKPRRKNPQEGLYNELQKDKMAEAYSEIGMKGERRRGKGHDGLYQGLSTATKDTYDALHMQALPPR
notes: Chimeric antigen receptor; also called MW89-29GB
Expression by CD123-Fc [2]: 0.64
